Data published in the nanobody polyreactivity screen of Harvey et al. (2022).

Test: yeast display, Sf9 membrane polyspecificity reagent, FACS + sequencing; frameworks hold sequencing errors
Procedure, shortened: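 A nanobody's polyreactivity label depends on the gate it was sorted from. Yeast display cells were stained with 10% biotinylated, detergent-solubilized Sf9 membrane reagent for 1 hour at 4 °C, enriched on streptavidin microbeads and sorted by FACS. The low and high (top ~1%) gates were set on anti-HA fluorescence for expression and streptavidin fluorescence for reagent binding.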
For “QVQLVESGGGLVQAGGSLRLSCAASGYIFVHYVMGWYRQAPGKERELVAAISSSGDRTYYADSVKGRFTISRDNAKNTVYLQMNSMKPEDTAVYYCAARYSDTSTNRYYYWGQGTQVTVSS”, the “polyreactivity (PSR sort gate)” value was “high polyreactivity”. For “QVQLVESGGGLVQAGGSLRLSCAASGRTFPGYAMGWYRQAPGKERELVAAITSSGDDTYYADSVKGRFTISRDNAKNTVYLQMNSLKPEDTAVYYCRLFRRSADSSYDYEYWGQGTQVTVSS”, the “polyreactivity (PSR sort gate)” value was “low polyreactivity”. For “QVQLVESGGGLVQAGGSLRLSCAASGIIFGYYAMGWYRQAPGKERELVAAISWSGVSTYYADSVKGRFTISRDNAKNTVYLQMHSLKPEDTAVYYCAVGYVLTGVFQARFDYWGQGTQVTVSS”, the “polyreactivity (PSR sort gate)” value was “high polyreactivity”. For “QVQLVESGGGLVQAGGSLRLSCAASGSIFNYYAMGWYRQAPGKERELVAGITSVGSTYYADSVKGRFTISRDNAKNTVYLQMNSLKPEDTAVYYCAAGYWYGMYYWGQGTQVTVSS”, the “polyreactivity (PSR sort gate)” value was “high polyreactivity”. In the case of “QVQLVESGGGLVQAGGSLRLSCAASGNTFPFNAMGWYRQAPGKERELVAAISRGGSTYYADSVKGRFTISRDNAKNTVYLQMNSLKPDDTAVYYCAAGYRRQGYGGYDYWGQGTQVTVSS”, the “polyreactivity (PSR sort gate)” value is reported as “high polyreactivity”. For “QVQLVESGGGLVQPGGSLRLSCAASGITFRGYAMGWYRQAPGKERELVATISYRGGNTYYADSVKGRFTISRDNAKNTVYLQMNSLKPEDTAVYYCARKYFRTSNLYGYWGQGTQVTVSS”, the “polyreactivity (PSR sort gate)” value was “high polyreactivity”. With “QVQLVESGGGLVQAGGSLRLSCAASGSIFASNAMGWYRQAPGKEREFVAAIYWSGTRTYYADSVKGRFTISRDNAKNTVYLQLKSLKPEDTAVYYCAALTVLRNDYWGQGTQVSVSS” the “polyreactivity (PSR sort gate)” value was “low polyreactivity”. With “QVQLVESGGGLVQAGGSLRLSCAASGSIFWYYAMGWYRQAPGKERELVAAISSGGSTNYADSVKGRFTISRDNAKNTVYLQMNSLKPEDTAVYYCAAGYAVSWYSAYDSGYWGQCTQVTVSS” the “polyreactivity (PSR sort gate)” value was “low polyreactivity”. For “QVQLVESGGGLVQAGGRLRLSCAASGISFDWYAMGWYRQAPGKERELVAAITVGASTYADSVKGRFTISRDNAKNTDYLQMNSLIPEDTAVYYCTFPVFVDYGFYTIGHDYWGQGTQVTVSS”, the “polyreactivity (PSR sort gate)” value was “low polyreactivity”. With “QVQLVESGGGLVQAGGSLRLSCAASGSTIPNYAKGWYRQAPGKERELVARIRWNGDSTYYADSVKGRFTISRDNAKNTVYLQMNSLKPEDTAVYYCARQGYTLYRTRYRYDYWGQGTQVTASS” the “polyreactivity (PSR sort gate)” value was “high polyreactivity”. With “QVQLVESGVGLLQAGGSLRLSCAASGFIIVPYAMGWYIQAPGKERELVATITWRGDSTYYADSVKGRFTISRDNAKNTVYLQMNSLKPEDTAVYYCAKRVVRGKVDYWGQGTQVTVSS” the “polyreactivity (PSR sort gate)” value was “low polyreactivity”. For “QVQLVESGGGLVQAGGRLRLSCAASGNIFHYNAMGGSRQAPGKERELVAAITWSGGNTYYADSVKGRFTISRDNAKNTVYLQLNSLKPEDTAVYYCAAEFPQRATGGRYKTEYDYWGQGTQVTVSS”, the “polyreactivity (PSR sort gate)” value was “low polyreactivity”. In the case of “QVQLVESGGGLVQAGGSLRLSCAASGRIFDTNAMGWYRQAPGKERELVAAITYSGGSTYYADSVKGRFTISRDNAKNTVYLQMNSLKPEDTAVYYCARVRPYSKYAYGYWGQGTQVTVSS”, the “polyreactivity (PSR sort gate)” value is reported as “high polyreactivity”. For “QVQLVESGGRLVQAGGSLRLSCAASGRTIYGNVMGWYRQAPGKERELVAVISWSSGSTSYADSVKGRFTISRDNAKNTVYLQMKSLKPEDTAVFYCAADSVTRPAGDYWGHGTQVTVSS”, the “polyreactivity (PSR sort gate)” value was “low polyreactivity”. In the case of “QVQLVESGGGLVQAGGSLRLSCAASGFIFFTNTMGWYRQAPGKEWELVAAINSNGGRTYYADSVKGRFTISRDNAKNTVYLQMNSLKPEDTAVYYCAARSVGGVARLDYWGQGTQVTVSS”, the “polyreactivity (PSR sort gate)” value is reported as “low polyreactivity”. In the case of “QVLLVESGGGLVQAGGSVRLICAASGSIFKKYALGWYRPATGEERELVAAISWRGGRTYYADSVTGRFTISRDNAKNTVFLQMNSLKPEDTAVYYCAKERYVSYRGGPWVDYWGQGTQVTVSS”, the “polyreactivity (PSR sort gate)” value is reported as “high polyreactivity”. With “QVQLVETGGGLVQAGGTLRLSCAPSGRIFPYNDMGLYRQAPGKERELVAANSSGGTTDYADSVKGRFTISRDNAKNTVYLQMNSLKPEDTAVYYCAATYVYWTWGYDYWGQGTQVTVSS” the “polyreactivity (PSR sort gate)” value was “low polyreactivity”. In the case of “QVQLVDSGGGLVQAGGSLRLSCAASGSTFYFKAMGWYRQAPGKEREFVATIRSGGSTYYADSVKGRFTISRDYAKNSVYLQMNSLTPEDTAVYYCAADLVDSYQWSIFLYGYWGQGTQVTVSW”, the “polyreactivity (PSR sort gate)” value is reported as “low polyreactivity”. For “QVQLVESGGGLVQAGGSLRLSCAASGSIFWSNAMGWYRQAAGKERELVASITRSGGSTYYADSVKGRFTISRDNAKNTVYLQMNSLKPEDTAVYYCAARTRGSSYHFDYWGQGTQVTVSS”, the “polyreactivity (PSR sort gate)” value was “high polyreactivity”. For “QVQLVESGGGLVQAGGSLRLSCAASGFIFLYYAMGWYRQAPGKERELVAAISNGGSTYYADSVKGRFTISRDNAKNTVYLQMNSLKPEDTAVYYCAARYGYRYTLKYGYWGQGTQVTVSS”, the “polyreactivity (PSR sort gate)” value was “high polyreactivity”. In the case of “QVQLVESGGGLVQAGGSLRLSCAASGSTFSSYVMGWYRQAPGKERELVAGITRGGRTYYADSVKGRFTISRDNAKNTGYLQMNSLKPEDTAVYYCAKDQGGVHELDYWGQGTQVTVSS”, the “polyreactivity (PSR sort gate)” value is reported as “low polyreactivity”. In the case of “QVQLVESGGGLVQAGGSLRLSCAASGSTFWKYAMGWYRQAPGKERELVASIRSGGSTYYADSVKGRFTISRDNAKNNVYLQMNSLKPEDTAVYYCNAMSRTVSHEADDYWGQGTQVTVSS”, the “polyreactivity (PSR sort gate)” value is reported as “high polyreactivity”. For “QVQLVESGGGLVQAGGSLRLTCAASGSTFRLNAIGWYRQAPGKERELVAAISRSTGTTHYADSVKGRFTISRDNAKHTVYLQMNSLIPEDTAVYYCAAQGGDGVLALYYYWGQGTQVTVSS”, the “polyreactivity (PSR sort gate)” value was “low polyreactivity”. With “QVQLVESGGGLVQAGGSLRLSCAASGSIFYGNTMGWYRQAPGKERELVAAISSGGSTKYADSVKGRFTISRDNAKNTVYLQMNSLKPEDTAVYYCAKVAPRSSSSQEYYYWGQGTQVTVSS” the “polyreactivity (PSR sort gate)” value was “low polyreactivity”. For “QVQLVESGGGLVQAGGSLRLSCAASGIIFDGYAMGWYRQAPGKEREFVAAITSGGGSTSYADSVKGRFTISRDNAKNTVYLQMNSLKPEDTAVYYCAARSNRFYVRQRYAYWGQGTQLTVSS”, the “polyreactivity (PSR sort gate)” value was “high polyreactivity”. With “QLQLVESGGGLVQAGGSLRLSCAASGRIFVYYAMGWYRQAPGKERELVASISYSGASTYYADSVKGRFTISRDNAKNTVYFQMNSLKPEDTAVYYCNTDGDDFFHVIYDYWGQGTQVTVSS” the “polyreactivity (PSR sort gate)” value was “low polyreactivity”. With “QVQLVESGGGLVQAGGSLRLSCAASGFTFSRNTMGWYRQAPGKEREFVAGIRRSGSSTYYADSVKGRFTISRDNAKNTVYLQMNSLKPEDTAVYYCARVNGAKQGGEYDYWGQGTQVTVSS” the “polyreactivity (PSR sort gate)” value was “high polyreactivity”. In the case of “QVQLVESGGGLVQAGGSLRLSCAASGYIFGSYTMGWYRQAPAKERELVAGISRRGGGTYYADSVKGRFTISRDNAKNTVYLQMNSLKPEDTAVYYCAAEVITIGLYRYGYWGQGTQVTVSS”, the “polyreactivity (PSR sort gate)” value is reported as “high polyreactivity”. With “QVQLVESGGGLVQAGGSLRLSCAASGSIFYPYVMGRYRQAPGKEREFVAAITTSGGTTYYADSVKGRFTISLDNAKNTVYLKMNSLKPEDTAVYDCAARGTVPGWAIYDYWGQGTEVTVSS” the “polyreactivity (PSR sort gate)” value was “low polyreactivity”. For “QVQLVESGGGIVQAGGSLRLSCAASGRTFFYYAMGWYRQAPGKERELVAAITTDGGTTYYADSVKGRFTISRDNAKNTVSLQMNSLKPEDTAGYYCAADASYQYYPYDYWGQGTQVTVSS”, the “polyreactivity (PSR sort gate)” value was “low polyreactivity”.
